Target: rhCD39-ECD
Test: BLI
Details: 30.0 °C

Substance: TTX-030
- Kd (pH 6.5): approximately 1.5 nM
- Kd (pH 7.4): approximately 1.5 nM

Reference: PMC7646477
